In assay [1] the target is Retromer^mClover (Vps26-Vps29-Vps35, carrying mClover on Vps29) (yeast, UniProt P40335;P38759;P34110). Put plainly: coat formation on supported membrane tubes, fluorescence microscopy.
In assay [2] the target is T1, Snx3 (recombinant, without fluorescent tag) (yeast, UniProt Q08826 1-162).
T1 sequence: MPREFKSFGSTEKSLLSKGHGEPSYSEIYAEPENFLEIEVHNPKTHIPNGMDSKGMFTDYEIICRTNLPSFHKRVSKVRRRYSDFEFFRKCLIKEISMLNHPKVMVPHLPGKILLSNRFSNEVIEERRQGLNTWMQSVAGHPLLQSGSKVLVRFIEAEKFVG
The assay is described as above.

Groups on a side chain read outwards from the residue. No end group written: not given here. Alexa‑547 = not defined here

Retromer^mClover (Vps26-Vps29-Vps35, carrying mClover on Vps29), sequence (P40335 whole entry, chain 1 of 3): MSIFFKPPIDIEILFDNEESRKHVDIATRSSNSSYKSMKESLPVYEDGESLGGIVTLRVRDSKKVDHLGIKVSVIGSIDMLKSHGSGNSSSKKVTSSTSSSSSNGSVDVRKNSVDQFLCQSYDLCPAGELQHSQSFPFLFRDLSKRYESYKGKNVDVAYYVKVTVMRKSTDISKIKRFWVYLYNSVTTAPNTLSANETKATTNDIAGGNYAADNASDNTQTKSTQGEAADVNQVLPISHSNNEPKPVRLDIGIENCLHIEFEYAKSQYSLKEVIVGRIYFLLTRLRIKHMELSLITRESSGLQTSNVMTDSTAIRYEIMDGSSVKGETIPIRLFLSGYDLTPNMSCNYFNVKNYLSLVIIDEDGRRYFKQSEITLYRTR
Retromer^mClover (Vps26-Vps29-Vps35, carrying mClover on Vps29), sequence (P38759 whole entry, chain 2 of 3): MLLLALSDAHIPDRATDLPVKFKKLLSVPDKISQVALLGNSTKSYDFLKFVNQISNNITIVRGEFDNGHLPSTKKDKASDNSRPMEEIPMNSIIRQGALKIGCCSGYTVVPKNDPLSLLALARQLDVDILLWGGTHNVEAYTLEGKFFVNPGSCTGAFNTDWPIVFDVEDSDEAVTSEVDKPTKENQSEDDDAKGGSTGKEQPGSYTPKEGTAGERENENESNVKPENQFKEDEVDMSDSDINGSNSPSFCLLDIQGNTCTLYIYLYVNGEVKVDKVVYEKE
Retromer^mClover (Vps26-Vps29-Vps35, carrying mClover on Vps29), sequence (P34110 whole entry, chain 3 of 3): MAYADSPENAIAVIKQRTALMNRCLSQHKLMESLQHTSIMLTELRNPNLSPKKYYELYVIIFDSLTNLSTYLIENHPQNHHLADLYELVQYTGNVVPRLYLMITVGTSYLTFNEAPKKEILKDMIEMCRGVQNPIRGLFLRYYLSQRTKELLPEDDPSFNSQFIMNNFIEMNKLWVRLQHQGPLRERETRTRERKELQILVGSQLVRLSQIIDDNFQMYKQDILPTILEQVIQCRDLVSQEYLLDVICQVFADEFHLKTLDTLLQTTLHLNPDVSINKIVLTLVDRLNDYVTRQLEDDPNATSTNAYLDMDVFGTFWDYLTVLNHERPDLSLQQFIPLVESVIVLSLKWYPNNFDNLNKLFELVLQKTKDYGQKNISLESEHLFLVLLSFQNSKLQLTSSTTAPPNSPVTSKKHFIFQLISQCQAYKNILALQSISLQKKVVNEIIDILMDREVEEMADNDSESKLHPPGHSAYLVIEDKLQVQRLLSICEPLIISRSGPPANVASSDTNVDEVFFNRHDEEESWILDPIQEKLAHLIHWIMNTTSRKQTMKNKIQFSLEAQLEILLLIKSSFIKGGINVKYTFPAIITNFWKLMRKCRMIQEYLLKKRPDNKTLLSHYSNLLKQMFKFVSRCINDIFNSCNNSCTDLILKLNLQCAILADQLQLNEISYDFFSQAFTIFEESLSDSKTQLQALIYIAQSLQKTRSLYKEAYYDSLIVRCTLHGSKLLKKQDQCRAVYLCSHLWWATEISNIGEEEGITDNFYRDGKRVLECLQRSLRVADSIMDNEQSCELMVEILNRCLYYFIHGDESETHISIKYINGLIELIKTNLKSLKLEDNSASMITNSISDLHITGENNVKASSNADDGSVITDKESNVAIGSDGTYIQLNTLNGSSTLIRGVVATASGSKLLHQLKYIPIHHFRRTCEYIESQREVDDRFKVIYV

Turning to GGGGGKKIINEEINLDSLGGC([maleimide-Alexa‑547]) (reading uncertain) [Ear1^547 (fluorescent Alexa-547-labelled Ear1 peptide)], the binding result in assay [1] and in assay [2] was “binds” each time.

B1: SNX-BAR (Vps5-Vps17) (complex)
chain 1: MDYEDNLEAPVWDELNHEGDKTQSLVSNSIESIGQISTNEERKDNELLETTASFADKIDLDSAPEWKDPGLSVAGNPQLEEHDNSKADDLINSLAPEQDPIADLKNSTTQFIATRESGGALFTGNANSPLVFDDTIYDANTSPNTSKSISGRRSGKPRILFDSARAQRNSKRNHSLKAKRTTASDDTIKTPFTDPLKKAEKENEFVEEPLDDRNERRENNEGKFTASVEKNILEQVDRPLYNLPQTGANISSPAEVEENSEKFGKTKIGSKVPPTEKAVAFKVEVKDPVKVGELTSIHVEYTVISESSLLELKYAQVSRRYRDFRWLYRQLQNNHWGKVIPPPPEKQSVGSFKENFIENRRFQMESMLKKICQDPVLQKDKDFLLFLTSDDFSSESKKRAFLTGSGAINDSNDLSEVRISEIQLLGAEDAAEVLKNGGIDAESHKGFMSISFSSLPKYNEADEFFIEKKQKIDELEDNLKKLSKSLEMVDTSRNTLAASTEEFSSMVETLASLNVSEPNSELLNNFADVHKSIKSSLERSSLQETLTMGVMLDDYIRSLASVKAIFNQRSKLGYFLVVIENDMNKKHSQLGKLGQNIHSEKFREMRKEFQTLERRYNLTKKQWQAVGDKIKDEFQGFSTDKIREFRNGMEISLEAAIESQKECIELWETFYQTNL
chain 2: MTSAVPYDPYDDLDNNPFAEPQEEDSEPAATTTDGSSSMSEERVGTEQTAASVQDNGTANNIQNGLGEEGNATRSKTSNEHNENQQPSQPSERVILPERSDEKKKYTLLAKVTGLERFGSATGKKENPTIIFDCSTNLPTFRKQQYKNVKKSYEEFHQLFKYLNVAIQESFVPTLPSAYTTFGINSEEDRMKVTRNFQLWFNRLSQDPLIIRNEEVAFFIESDFNTYTPINKSKSLASGLKRKTLKQLAPPYDEITELAEFRPLVKSIYVVSQSLQEKLLRVSRNRKMMVQEENAFGQDFVNLDEHNKLYRRYGKILTAVGDIDSIIATMDMATLYDGLEWIVRDAYAVKEALTNRHFIMRNLVQAQQNSKAKQEQARRFRSRRDINPMKIDEALRQLKAAAKNEQVLTLKLQRITSNMIIERKQWISWYEEWIRSSIKEFTLRKIEYERKKLTLLERVRSDIRKADENGGLSRLGRHAVSNNNSDTSQTLKGDSWTGESNRKSQIPINKIAHTEFDDELFTEDDGYNSQDSDTTSLNARHAASLLGMSTK
B1: the binding result in assay [1] is given as “binds”.

The values above are taken from doi:10.1101/2025.07.29.667382 (bioRxiv, 2025).
